Data as given in paper PMC10858482.

Target: SARS-CoV-2 Omicron BA.1 spike protein (SARS-CoV-2 (Omicron BA.1)) (UniProt P0DTC2)
Experiment: cryo-EM structure; Tr67 and Omicron BA.1 spike mixed in a 1.5:1 weight ratio, 0.3 mg/ml; single-particle analysis, C3 symmetry, map at ~9 Å

SARS-CoV-2 Omicron BA.1 spike protein (from UniProt P0DTC2 14-1273) (natural protein)
stoichiometry N: 3
